{"source": "patent US9347884B2", "about": "“Microfluidic device with direct sample heating via electromagnetic radiation” (UCL BUSINESS PLC, priority 2009, dated 2016)", "key": {"[1]": {"assay": "Equilibrium denaturation of FKBP-12 proteins by GdnHCl, capillary method", "type": "physicochemical", "experimental": "Samples were measured and averaged for 100 laser pulses. […] Error bars shown are standard deviations.\n(§1) The experimental detail was as set out below:\n(§2) Equilibrium denaturation of wild-type FKBP-12: 50 μl, of FKBP-12 stock (50 μM FKBP-12, 5 mM DTT, 50 mM Tris.HCl, pH 7.5) was added to each well of a UV transparent Costar (Corning, Lowell, Mass., USA) 96-well plate. […] Samples were sealed and equilibrated for 17 hours at 22° C. prior to measurement of intrinsic protein fluorescence in a Fluostar Optima plate reader as above. The same samples were then used to measure intrinsic protein fluorescence in the micro-capillary device for a direct comparison.\n(§3) Data for the observed fluorescence (Fobs) as a function of denaturant concentration ([D]) were fit using SigmaPlot 10.0 (Systat Software, Hounslow, UK) to the equation below: […]\n(§4) The free energy of protein denaturation in water ΔGH2O was calculated as mGC1/2, using the fitted mG, where we set the denaturant dependent free energy (ΔGobs) to zero in the equation below when [D] is equal to C1/2. ΔGobs=ΔGH2O+mG[D] Values of ΔGH2O were used to calculate the change in free energy of the mutant or ligand bound protein, ΔΔGX-WT, relative to un-liganded wild-type FKBP-12. The change in free energy of unfolding upon ligand binding, ΔΔGbinding, was calculated for each mutant from the values of ΔGH2O for liganded FKBP-12 relative to ΔGH2O for non-liganded FKBP-12."}, "[2]": {"assay": "Equilibrium denaturation of FKBP-12 proteins by GdnHCl, microplate method", "type": "physicochemical", "experimental": "as §1, §2, §3, §4"}, "[3]": {"assay": "Example 1 GdHCl denaturation of FKBP-12, capillary intrinsic fluorescence", "type": "physicochemical", "conditions": "2 μM FKBP-12, GdHCl, 1 mM DTT, 50 mM Tris.HCl pH 7.5, 20° C.", "description": "The configuration comprises a laser 5 (QUV266-02, Crystalaser, Reno, Nev.) of wavelength 266 nm, 5 mW, pulsed at 1 kHz; a bandpass filter (newport), at 266 nm 15; a converging lens (SPX010AR.10, Newport) 16; a 100 μm internal diameter capillary (FS-110, Upchurch™) 1; and a photo multiplier tube (R1166PMT, Hamamatsu, Japan) 7; linked to a data acquisition system consisting of a PC expansion card (PXI-5124, National Instruments), for capture and analysis of the data in Labview (National Instruments). […] Samples were measured and averaged for 100 laser pulses. […] A fluorescence relative intensity of 1500 at a concentration of 0 mg ml^−1 of BSA corresponds to the background signal of the setup generated by excitation radiation.\nThe denaturation experiment was repeated for another protein using 2 μM FKBP-12. […] The stability was measured using the denaturant guanidinium hydrochloride (GdHCl) in 1 mM dithiothreitol (DTT), 50 mM Tris.HCl at pH 7.5 and at 20° C., using a flow rate of 10 μL/min through the capillary. The fluorescence of FKBP with various concentrations of GdHCl (from 0M to 3M) was measured. […] C1/2 represents the denaturant concentration at which half of the protein is in the unfolded state."}, "[4]": {"conditions": "Literature, cited from earlier work"}, "[5]": {"conditions": "GdnHCl, 50 mM Tris.HCl pH 7.5, 1 mM DTT"}, "[6]": {"conditions": "GdnHCl, mG from each independent curve fit"}, "[7]": {"conditions": "GdnHCl, using average mG values"}, "[8]": {"conditions": "relative to wild-type FKBP-12 without rapamycin, from ΔGH2O"}}, "note": "Like-named read-outs stand apart in the source and are kept apart here.", "data": [{"substance": "FKBP-12 wt: Wild-type FKBP-12 expressed and purified from a GST-FKBP fusion gene in E. coli BL21 cells", "values": [{"measurement": "mG", "setting": "[1]; GdnHCl", "result": "5.4 ± 0.7", "unit": "kcal mol^−1 M^−1"}, {"measurement": "C1/2 (transition mid-point)", "setting": "[1]; [5]", "result": "0.74 ± 0.02", "unit": "M"}, {"measurement": "ΔGH2O", "setting": "[1]; [6]", "result": "4.03 ± 0.5", "unit": "kcal/mol"}, {"measurement": "ΔG<mG>", "setting": "[1]; [7]", "result": "3.84 ± 0.3", "unit": "kcal/mol"}, {"measurement": "ΔΔGX-WT", "setting": "[1]; [8]", "result": 0, "unit": "kcal/mol"}, {"measurement": "mG", "setting": "[2]; GdnHCl", "result": "6.6 ± 0.4", "unit": "kcal mol^−1 M^−1"}, {"measurement": "C1/2 (transition mid-point)", "setting": "[2]; [5]", "result": "0.77 ± 0.01", "unit": "M"}, {"measurement": "ΔGH2O", "setting": "[2]; [6]", "result": "5.05 ± 0.3", "unit": "kcal/mol"}, {"measurement": "ΔG<mG>", "setting": "[2]; [7]", "result": "4.72 ± 0.3", "unit": "kcal/mol"}, {"measurement": "ΔΔGX-WT", "setting": "[2]; [8]", "result": 0, "unit": "kcal/mol"}, {"measurement": "mid-point of denaturation (C1/2), absence of rapamycin", "setting": "[3]", "result": 0.65, "unit": "M"}, {"measurement": "C1/2 (transition mid-point)", "setting": "[4]; GdnHCl", "result": "0.78 ± 0.005", "unit": "M"}, {"measurement": "mG", "setting": "[4]; GdnHCl", "result": "6.6 ± 0.3", "unit": "kcal mol^−1 M^−1"}, {"measurement": "ΔGH2O", "setting": "[4]; GdnHCl", "result": "5.13 ± 0.2", "unit": "kcal/mol"}, {"measurement": "ΔΔGX-WT", "setting": "[4]; relative to wild-type FKBP-12 without rapamycin", "result": 0, "unit": "kcal/mol"}]}]}
